Laboratory results taken from US20190375786A1, “STABLE PEPTIDES AND METHODS OF USE THEREOF” (Fred Hutchinson Cancer Research Center, priority 2016, published 2019).

Assays:
[1] = target: trypsin (Sus scrofa, UniProt P00761); test: Trypsin digestion resistance of soluble peptide, RP-HPLC; type: in vitro ADME, porcine; design: purchased Sigma Aldrich 6567; details: 30 minutes at 37.5° C.; for Resistance to Trypsin (500 U/ml): 500 U/ml trypsin, HPLC peak vs untreated peptide
Procedure, shortened: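 Read-out was RP-HPLC (C-18, water/acetonitrile with 0.1% TFA, 5-45% over 10 min) of peptide left after trypsin treatment. Digest: 12.5 μg peptide, 500 U/ml porcine trypsin, PBS, 37.5° C for 30 min, stopped by soybean trypsin inhibitor; samples then reduced (10 mM DTT) or left non-reduced.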

[2] = Resistance to elevated temperature, HPLC; type: physicochemical; details: HPLC peak vs untreated peptide; for Resistance to Temperature (75° C.): 75° C. for one hour; for Resistance to Temperature (100° C.): 100° C. for one hour
Procedure: (§1) Peptides were first suspended in 500 μl of ddH2O to a stock concentration of 2 mg/ml. Reactions were prepared by adding 12.5 μg of peptide from the stock solution to a 10 mM solution of DTT in PBS and allowed to incubate at room temperature for 30 minutes. Other reactions were prepared with 12.5 μg peptide and 500 U/ml trypsin in 25 mM Tris/75 mM NaCl buffer (pH 7.0) and incubated for 30 minutes at 37.5° C. These reactions were then quenched with 5 μg of soybean trypsin inhibitor (I) and, in some cases, 10 mM dithiothreitol (DTT). Reversed phase HPLC (RP-HPLC) was run on samples using an Agilent 1260 HPLC equipped with a C-18 Poroshell 120B column. Sample were analyzed by a gradient method with a mobile phase of Solvent A (water with 0.1% TFA) and Solvent B (acetonitrile with 0.1% TFA). Solvent B was ramped up from 5%-45% of the mobile phase over a period of 10 minutes. For testing pepsin digestion resistance, reactions were prepared with 12.5 μg peptide with or without 500 U/ml pepsin in simulated gastric fluid (SGF; pH 1.05; […] sodium chloride in 0.7% (v/v) hydrochloric acid) and were incubated for 30 minutes at 37.5° C. For testing temperature resistance, peptides were incubated at 70° C., 75° C., or 100° C. for one hour in 0.5 mM PBS, pelleted, and then the supernatant was analyzed by HPLC.
This example illustrates peptide stability at high temperatures. Peptides were first suspended in 500 μl of ddH2O to a stock concentration of 2 mg/ml. Reactions were prepared by adding 6.25 μl of peptide from the stock solution with 95 μl ddH2O and incubated at room temperature, 70° C., or 100° C. for one hour in a Thermocycler. RP-HPLC was then run on samples using an Agilent 1260 HPLC equipped with a C-18 Poroshell 120B column. Sample were analyzed by a gradient method with a mobile phase of Solvent A (water with 0.1% TFA) and Solvent B (acetonitrile with 0.1% TFA). Solvent B was ramped up from 5%-45% of the mobile phase over a period of 10 minutes.

[3] = Resistance to reduction by DTT, RP-HPLC; type: physicochemical; details: for Resistance to DTT Reduction (10 mM): 10 mM DTT in PBS, room temperature, 30 minutes, HPLC peak vs untreated peptide
Procedure: Peptides were first suspended in 500 ul of ddH2O to a stock concentration of 2 mg/ml. Reactions were prepared by adding 12.5 ug of peptide from the stock solution to a 10 mM solution of DTT in PBS and allowed to incubate at room temperature for 30 minutes. Other reactions were prepared with 12.5 μg peptide with or without 500 U/ml pepsin in simulated gastric fluid (SGF; pH 1.05; […] sodium chloride in 0.7% (v/v) hydrochloric acid) and were incubated for 30 minutes at 37.5° C. Some reactions were quenched with a final concentration of 100 mM Tris base and 10 mM dithiothreitol (DTT). Some reactions were performed in all of the above components, including simulated gastric fluid, pepsin, Tris, and DTT (referred to as SPTD). Reversed phase HPLC (RP-HPLC) was run on samples using an Agilent 1260 HPLC equipped with a C-18 Poroshell 120B column. Sample were analyzed by a gradient method with a mobile phase of Solvent A (water with 0.1% TFA) and Solvent B (acetonitrile with 0.1% TFA). Solvent B was ramped up from 5%-45% of the mobile phase over a period of 10 minutes. Peptides were detected at an absorbance of 214 nm and 280 nm.
as §1
This example illustrates peptide stability in biological conditions including in the presence of reducing agents, proteases, oxidative conditions, acidic conditions, and simulated gastric fluids. […] Various peptides were suspended in 500 μl of ddH2O at a stock concentration of 2 mg/ml. This was then diluted in accord with the reaction conditions to prevent adverse buffering effects. Reactions were prepared with 12.5 μg peptide dissolved in solution and, in some samples, additionally suspended in a 10 mM solution of DTT, simulated gastric fluid (pH 1.05; […] sodium chloride in 0.7% (v/v) hydrochloric acid), 500 U pepsin (5000 U/ml pepsin), 50 U trypsin (500 U/ml trypsin) with 1 mg/ml inhibitor in PBS, or a combination of any of these conditions. All protease reactions were incubated for 30 min at room temperature and then quenched. Pepsin reactions were quenched by adding Tris base to a final concentration of 0.075 M. Trypsin reactions were quenched by adding excess soybean trypsin inhibitor. RP-HPLC was then run on samples using an Agilent 1260 HPLC equipped with a C-18 Poroshell 120B column. Sample were analyzed by a gradient method with a mobile phase of Solvent A (water with 0.1% TFA) and Solvent B (acetonitrile with 0.1% TFA). Solvent B was ramped up from 5%-45% of the mobile phase over a period of 10 minutes.
FIG. 18 illustrates high performance liquid chromatograph (HPLC) traces of peptides in non-reducing (NR) conditions (solid trace) or in 10 mM DTT reducing (R) conditions (dashed trace). […]

[4] = target: pepsin (Sus scrofa, UniProt P00791); test: Pepsin digestion resistance in simulated gastric fluid, RP-HPLC; type: in vitro ADME, porcine; design: purchased Sigma Aldrich P7012; details: 500 U/ml pepsin in SGF pH 1.05, 30 minutes at 37.5° C.; HPLC peak vs untreated peptide
Sequence of pepsin (P00791 60-385): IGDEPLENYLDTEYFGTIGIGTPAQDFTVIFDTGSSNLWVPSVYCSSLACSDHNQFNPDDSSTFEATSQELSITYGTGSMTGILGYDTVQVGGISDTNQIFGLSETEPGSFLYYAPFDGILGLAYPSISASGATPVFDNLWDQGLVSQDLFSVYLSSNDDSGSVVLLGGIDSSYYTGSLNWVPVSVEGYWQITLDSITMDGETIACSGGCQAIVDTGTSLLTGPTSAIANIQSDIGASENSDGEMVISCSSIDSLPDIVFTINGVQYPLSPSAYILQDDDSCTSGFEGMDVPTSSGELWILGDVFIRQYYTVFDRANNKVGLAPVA
Procedure, shortened: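 Digestion resistance read by reversed-phase HPLC (C-18, 0.1% TFA, 5–45% acetonitrile over 10 min; 214/280 nm) after 12.5 μg peptide spent 30 min at 37.5 °C in pH 1.05 simulated gastric fluid, with or without 500 U/ml pepsin. Some samples quenched with Tris base and DTT.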

Sequence of trypsin (P00761 9-231): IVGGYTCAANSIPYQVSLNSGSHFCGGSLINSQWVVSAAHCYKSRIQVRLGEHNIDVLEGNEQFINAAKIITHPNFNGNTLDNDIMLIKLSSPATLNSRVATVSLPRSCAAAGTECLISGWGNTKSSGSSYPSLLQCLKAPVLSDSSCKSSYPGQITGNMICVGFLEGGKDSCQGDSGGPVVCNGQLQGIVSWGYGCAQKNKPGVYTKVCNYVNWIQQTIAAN

Substance	Resistance to Trypsin (500 U/ml) [1]	Resistance to Temperature (75° C.) [2]	Resistance to Temperature (100° C.) [2]	Resistance to DTT Reduction (10 mM) [3]	Resistance to Pepsin (500 U/ml) [4]	resistance to trypsin digestion (in words) ([1]; 500 U/ml trypsin (50 U per reaction), HPLC)	resistance to reduction by DTT (in words) ([3]; 10 mM DTT, HPLC vs non-reduced peptide)
17 (GSACQFWSCNSSCISRGYRQGYCWGIQYKYCQCQ) [compound 17]	Low (A peptide classified as low indicates that the majority (over 75%) of the HPLC peak of the treated peptide disappeared as compared to the HPLC peak of the untreated peptide)	High (A peptide classified as high indicates that the majority (at least 75%) of the HPLC peak of the treated peptide is still present as compared to the HPLC peak of the untreated peptide)	High (A peptide classified as high indicates that the majority (at least 75%) of the HPLC peak of the treated peptide is still present as compared to the HPLC peak of the untreated peptide)	Moderate (A peptide classified as medium indicates that about half (between 25% and 75%) of the HPLC peak of the treated peptide disappeared as compared to the HPLC peak of the untreated peptide)	High (A peptide classified as high indicates that the majority (at least 75%) of the HPLC peak of the treated peptide is still present as compared to the HPLC peak of the untreated peptide)		
41 (GSPDEYIERAKECCKKGDIQCCLRYFEESGDPNVMLICLACP) [compound 41]				Low (A peptide classified as low indicates that the majority (over 75%) of the HPLC peak of the treated peptide disappeared as compared to the HPLC peak of the untreated peptide)			
13 (GSAEIIRCSGTRECYAPCQKLTGCLNAKCMNKACKCYGCV) [compound 13]	Low (A peptide classified as low indicates that the majority (over 75%) of the HPLC peak of the treated peptide disappeared as compared to the HPLC peak of the untreated peptide)	High (A peptide classified as high indicates that the majority (at least 75%) of the HPLC peak of the treated peptide is still present as compared to the HPLC peak of the untreated peptide)	High (A peptide classified as high indicates that the majority (at least 75%) of the HPLC peak of the treated peptide is still present as compared to the HPLC peak of the untreated peptide)	Low (A peptide classified as low indicates that the majority (over 75%) of the HPLC peak of the treated peptide disappeared as compared to the HPLC peak of the untreated peptide)	High (A peptide classified as high indicates that the majority (at least 75%) of the HPLC peak of the treated peptide is still present as compared to the HPLC peak of the untreated peptide)		
15 (GSCIGEGVPCDENDPRCCFGLVCLKPTLHGIWYKSYYCYKK) [compound 15]	Low (A peptide classified as low indicates that the majority (over 75%) of the HPLC peak of the treated peptide disappeared as compared to the HPLC peak of the untreated peptide)	High (A peptide classified as high indicates that the majority (at least 75%) of the HPLC peak of the treated peptide is still present as compared to the HPLC peak of the untreated peptide)	Low (A peptide classified as low indicates that the majority (over 75%) of the HPLC peak of the treated peptide disappeared as compared to the HPLC peak of the untreated peptide)	Low (A peptide classified as low indicates that the majority (over 75%) of the HPLC peak of the treated peptide disappeared as compared to the HPLC peak of the untreated peptide)	High (A peptide classified as high indicates that the majority (at least 75%) of the HPLC peak of the treated peptide is still present as compared to the HPLC peak of the untreated peptide)		
44 (GSPDEYIERAKECCKKQDIQCCLRIFDESGDPNVMLICLFCW) [compound 44]				Moderate (A peptide classified as medium indicates that about half (between 25% and 75%) of the HPLC peak of the treated peptide disappeared as compared to the HPLC peak of the untreated peptide)			
1 (GSDCLPHLRRCRADNDCCGRRCRRRGTNAERRCR) [compound 1]	Moderate (A peptide classified as medium indicates that about half (between 25% and 75%) of the HPLC peak of the treated peptide disappeared as compared to the HPLC peak of the untreated peptide)			Low (A peptide classified as low indicates that the majority (over 75%) of the HPLC peak of the treated peptide disappeared as compared to the HPLC peak of the untreated peptide)			
40 (GSPDEYIERAKECCKKGDIQCCLRYFEESGDPNVMLICAFCP) [compound 40]				Low (A peptide classified as low indicates that the majority (over 75%) of the HPLC peak of the treated peptide disappeared as compared to the HPLC peak of the untreated peptide)			
GSDCLPHLRRCRADNDCCGRRCRRRGTNAERRCR [SEQ ID NO: 1]						partially resistant	not resistant
26 (GSVGCEECPMHCKGKNANPTCDDGVCNCNV) [compound 26]	Moderate (A peptide classified as medium indicates that about half (between 25% and 75%) of the HPLC peak of the treated peptide disappeared as compared to the HPLC peak of the untreated peptide)			Low (A peptide classified as low indicates that the majority (over 75%) of the HPLC peak of the treated peptide disappeared as compared to the HPLC peak of the untreated peptide)			
